US20130023004A1 (WASHINGTON UNIVERSITY, published 2013)
Values belong to the molecule of their own block, whether it stands above or below them.

Tests used:
plasma ADAMTS13 (human) = plasma ADAMTS13 (human) (UniProt Q76LX8); assay: cell-based or functional assay
FRETS-rVWF71 = target: T1, FRETS-rVWF71
T1 chain: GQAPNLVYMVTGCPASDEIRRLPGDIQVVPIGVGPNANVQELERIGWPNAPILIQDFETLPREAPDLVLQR

plasma ADAMTS13 = target: T2, plasma ADAMTS13 (human, UniProt Q76LX8 75-1427); assay: Michaelis-Menten kinetics of substrate cleavage by plasma ADAMTS13 (fluorescence)
T2 construct: Not purified; enzyme source was plasma (about 6 nM ADAMTS13 in PNP by a literature value); also called ADAMTS13 in PNP (pooled normal plasma)
T2 sequence (looked up): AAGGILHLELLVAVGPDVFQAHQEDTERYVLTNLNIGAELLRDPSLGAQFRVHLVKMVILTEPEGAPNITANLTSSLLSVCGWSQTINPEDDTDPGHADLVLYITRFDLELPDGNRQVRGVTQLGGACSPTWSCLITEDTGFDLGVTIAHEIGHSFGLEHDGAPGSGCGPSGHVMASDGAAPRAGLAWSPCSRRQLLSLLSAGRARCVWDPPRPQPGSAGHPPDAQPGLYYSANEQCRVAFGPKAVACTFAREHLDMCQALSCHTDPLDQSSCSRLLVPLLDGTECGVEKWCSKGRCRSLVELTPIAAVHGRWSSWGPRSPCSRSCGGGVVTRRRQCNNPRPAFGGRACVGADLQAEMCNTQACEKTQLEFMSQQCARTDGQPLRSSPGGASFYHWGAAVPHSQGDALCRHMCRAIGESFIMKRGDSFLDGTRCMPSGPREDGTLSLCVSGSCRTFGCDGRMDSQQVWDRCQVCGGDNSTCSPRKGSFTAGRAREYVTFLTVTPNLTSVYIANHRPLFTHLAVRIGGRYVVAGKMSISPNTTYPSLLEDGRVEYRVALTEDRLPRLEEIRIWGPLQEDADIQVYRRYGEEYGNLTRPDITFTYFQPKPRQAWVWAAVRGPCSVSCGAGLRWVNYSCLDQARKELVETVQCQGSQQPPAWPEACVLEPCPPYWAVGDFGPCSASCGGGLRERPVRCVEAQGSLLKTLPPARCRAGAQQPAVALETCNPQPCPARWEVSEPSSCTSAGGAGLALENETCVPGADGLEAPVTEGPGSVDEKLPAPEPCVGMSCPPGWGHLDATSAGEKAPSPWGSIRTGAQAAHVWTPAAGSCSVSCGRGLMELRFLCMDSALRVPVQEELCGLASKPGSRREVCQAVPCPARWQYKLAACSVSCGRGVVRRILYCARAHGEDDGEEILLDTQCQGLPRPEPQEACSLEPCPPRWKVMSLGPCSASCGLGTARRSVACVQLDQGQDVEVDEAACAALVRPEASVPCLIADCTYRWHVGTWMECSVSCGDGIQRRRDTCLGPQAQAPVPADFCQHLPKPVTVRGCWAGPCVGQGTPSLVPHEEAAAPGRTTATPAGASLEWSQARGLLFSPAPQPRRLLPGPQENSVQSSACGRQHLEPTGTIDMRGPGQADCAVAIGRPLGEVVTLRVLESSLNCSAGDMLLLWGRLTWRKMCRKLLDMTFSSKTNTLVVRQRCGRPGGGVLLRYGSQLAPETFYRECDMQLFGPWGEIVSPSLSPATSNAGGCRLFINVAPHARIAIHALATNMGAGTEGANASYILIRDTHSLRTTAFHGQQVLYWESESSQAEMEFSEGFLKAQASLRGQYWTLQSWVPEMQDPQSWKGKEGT
Description: In these experiments, FRETS-rVWF71 cleavage by plasma ADAMTS13 (50 μL) was assessed in 200 μL reactions containing 50 mM HEPES, pH 7.4, 10 mM CaCl₂, 150 mM NaCl, and 0.05% Tween-20, and varying concentrations of FRETS-rVWF71. The concentration of ADAMTS13 in PNP is ˜1.03 μg/ml (Feys, H. B., et al. J. Thromb. Haemost 4:955-62, 2006), or ˜6 nM for a molecular mass of 170 kDa. For each concentration of substrate, the relationship between product fluorescence and concentration was determined directly by cleaving FRETS-rVWF71 to completion with excess recombinant ADAMTS13 MDTCS (Feys, H. B., et al. J. Thromb. Haemost. 7:2088-95, 2009) and measuring the fluorescence. Control assays contained plasma that was completely deficient in ADAMTS13. The initial velocities (nM/min) as a function of substrate concentration were fitted to the Michealis-Menten equation by nonlinear regression analysis (Prism, GraphPad).

B1: plasma ADAMTS13 (protein)
chain: T2 sequence (looked up)
- Km (FRETS-rVWF71): Km of 1.8 µM
- kcat (FRETS-rVWF71): kcat of 6.8 min^-1 at 30 °C

B3: recombinant ADAMTS13 MDTCS (protein)
chain: AAGGILHLELLVAVGPDVFQAHQEDTERYVLTNLNIGAELLRDPSLGAQFRVHLVKMVILTEPEGAPNITANLTSSLLSVCGWSQTINPEDDTDPGHADLVLYITRFDLELPDGNRQVRGVTQLGGACSPTWSCLITEDTGFDLGVTIAHEIGHSFGLEHDGAPGSGCGPSGHVMASDGAAPRAGLAWSPCSRRQLLSLLSAGRARCVWDPPRPQPGSAGHPPDAQPGLYYSANEQCRVAFGPKAVACTFAREHLDMCQALSCHTDPLDQSSCSRLLVPLLDGTECGVEKWCSKGRCRSLVELTPIAAVHGRWSSWGPRSPCSRSCGGGVVTRRRQCNNPRPAFGGRACVGADLQAEMCNTQACEKTQLEFMSQQCARTDGQPLRSSPGGASFYHWGAAVPHSQGDALCRHMCRAIGESFIMKRGDSFLDGTRCMPSGPREDGTLSLCVSGSCRTFGCDGRMDSQQVWDRCQVCGGDNSTCSPRKGSFTAGRAREYVTFLTVTPNLTSVYIANHRPLFTHLAVRIGGRYVVAGKMSISPNTTYPSLLEDGRVEYRVALTEDRLPRLEEIRIWGPLQEDADIQVYRRYGEEYGNLTRPDITFTYFQPKPRQA
- cleavage of the substrate (fluorescence) (FRETS-rVWF71): cleaving FRETS-rVWF71 to completion with excess recombinant ADAMTS13 MDTCS

Further lines, results first:

- IC50 of inhibition of ADAMTS13 activity (FRETS-rVWF71 cleavage) (plasma ADAMTS13 (human)): 10 to 15 mg/mL
Molecule: Hemoglobin (from UniProt P69905 2-142; P68871 2-147)

- binding result (plasma ADAMTS13): binds
B2: FRETS-rVWF71 (peptide)
peptide: T1 chain
modifications: Cys1610 modified with DyLight 633 (maleimide); N-terminal Gly modified with IRDye QC-1 (N-hydroxysuccinimidyl ester)
notes: Fluorogenic substrate; Recombinant peptide rVWF71 (extra N-terminal Gly = E1598G, N1610C, K1617R) labelled with fluorophore and quencher; also called VWF-rFRETS71; doubly-labeled substrate
